Source: the supplement of paper PMC9170038

System: MS2 coat protein
Assay: apparent KD of MS2 coat protein; higher = weaker reporter binding
Conditions: Eterna round: R107
How it was run: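 Apparent KD per design is the median of normalised cluster binding-curve fits. Designed RNA switches transcribed on-chip from Illumina sequencing clusters were titrated with SNAP-549-labelled MS2 coat protein in twofold steps from 0.7 or 1.5 nM to 3 µM, with 0.8–1.5 h down to 10–20 min per step. Buffer: 100 mM Tris-HCl pH 7.5, 80 mM KCl, 4 mM MgCl2, without or with constant ligand.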

[1] = input ligand: theophylline 20 uM
[2] = input ligand: theophylline 2 mM
[3] = input ligand: tryptophan 2.4 mM

Sequence	apparent KD of MS2 coat protein (input ligand: arginine 13.2 mM) [nM]	apparent KD of MS2 coat protein (input ligand: none) [nM]	apparent KD of MS2 coat protein [1] [nM]	apparent KD of MS2 coat protein [2] [nM]	apparent KD of MS2 coat protein [3] [nM]
GGACUAACCAGAAGGAGCGACACGCAGAAACUGCUAAUUCCUCCGCACGAGGAUCACCCGUGUCAGGUAGGUCGCUGGUUAGUCG [ArgBX 28]	20.3	20.5	28.5	24.3	23.3
GGACUAACCAGAAGGAGCGACGCGCAGAAACUGCAAAAUCCUCCACACGAGGAUCACCCGUGUCAGGUAGGUCGCUGGUUAGUCG [ArgXB 16 #CuTurnoff #MS2Left #StaticStem #Blueprint]	30.2	26.6	36.1	27.2	31.3
GGACUAACCAGAAGGAGCGGCACGCAGAAACUGCAAUUUCCUCCACACGAGGAUCACCCGUGUCAGGUAGGUCGCUGGUUAGUCG [ArgBX 29]	26.4	22.7	21.8	23.8	22.6
GGACUAACCUGAAGGAGCGACGCGCAGAAACUGCAAAUUCCUCCACACGAGGAUCACCCGUGUCAGGUAGGUCGCAGGUUAGUCG [ArgBX 28]	13.6	14.6	18.9	18.2	16.9
GGAUAGGACACGGCCGCCACUAGCUAGGAUACUAGCAACAUUUCCUCACUUGAGGAACACCCAAGUAGGACCGGGUGUCCUAUCG	122	517	724	1360	740
GGAUAGGACACGGCCGCCACUAGCUAGGAUACUAGCAACAUUUCCUCAUCUGAGGAUCACCCAGGUAGGACCGGGUGUCCUAUCG	172	–	683	1070	565
GGAUAGGACACGGCCGCCACUUGCUAGGAUACUAGCAACAUUUCCUCUCAUGAGGAUCACCCAUGAAGGACCGGGUGUCCUAUCG	21.3	–	30.6	23.3	27.3
GGAUUCAACUCGGCCGCCACUGGUGAUCCUAAUGUACAUGAGGAUCACCCAUGUACAUGAGAAUAUAGGACCGGGAGAUAAGUUA [Tryptophan B V3 (+3U)]	23.2	–	33.5	32.2	–
GGCACGUACGGAAGGAGCGACUGUUCGACGUGGGUACAUGAGGAUCACCCAUGUCUCCGCAGUCAGGUAGGUCGCCGUACGUGCC [EAB NP+V+V2 #21 +-Same Structure]	34.3	42.7	63.6	49.8	38.6
GGCCAGGCAGCGGCCGCCACUUAGUGGGCCGAAUGUCCUUUGCUGAACAUGAGGAUCACCCAUGUAAGGACCGGGCUGUUCCGCA [theeternabot_exclusion_MS2_Trp_B_30]	27.4	–	42.3	41.5	–
GGCGCGGUGAUGGUAGCCGGACGCUAGGUACGAGGACCGGUACGGCCGCCACUCGGAGUCCUGGGACAUGAGGAUCACCCAUGUA [Same State Trp A GF18]	78.9	161	118	209	63.4
GGCUGACAUGAGGAUCACCCAUGUAGUGAUACCAGUAAGAGAAUAUACCCUUGGCAGCACAGGUAACAACUCGUCUCCAAAGUAA [theeternabot_sameState_MS2_Theo_A_49]	53.7	–	55.6	–	38.2
GGGAAAUGAAUAGAAUGAGAUGACACAGAAGGAGCGCGGAUUAACGCAGGUAGGUCGCUGACAACAUGAGGAUCACCCAUGUUUC [#10 Same State - Arginine A]	13.7	14.2	17.6	18	14.1
GGGCCCGGGCGCGAGCCCGGGCCCAUUGAUACCAGUGAUAUAUAACGCCCUUGGCAGCGAAUCCUAACAUGAGGAUCACCCAUGU [5.G]	35.2	46.3	61.5	71.8	37
GGGCGCUAUCCCGCGAGGGAUAGCGUUCAACGAGGACCGGUACGGCCGCCACUCGAACGAGUGGUGACAUGAGGAUCACCCAUGU [Iaa]	39.9	42.5	66.4	53.3	56.4
GGGCGUGUGGUGCGGCGUGCUCCGCUCCGUCGAGGACCGGUACGGCCGCCACUCGACAUGAGGAUCACCCAUGUGCGAGCGCGCG [#1 Exclusion - Tryptophan A Attempt #9 (HarryS)]	16.3	9.81	10.5	14.4	24.4
GGGUACAUCGCGGCCGCCACUCAUGUAAAUGCGUGAGGAUCACCCAUGCCGAUGGAGACAUCGGAGAGGACCGGGUGAUGUACCG	27.9	38.5	40	52.7	46.7
GGGUGGUAGGCGGCCGCCACUGAUUUUUAUUUAUAGAUGACAUGAGGAUCACCCAUGUUGAUAUGCAGGACCGGGCCUGUUGUUG [aaaP]	10.9	–	19.7	15.4	–
GGGUGGUAGGCGGCCGCCACUGAUUUUUAUUUAUAGAUGACAUGAGGAUCACCCAUGUUUAUGUGCAGGACCGGGCCUGUUGUGG [aaaR]	12.2	16.1	15.2	15.6	13.9

Sequence	apparent KD of MS2 coat protein (input ligand: arginine 13.2 mM) [nM]	apparent KD of MS2 coat protein (input ligand: none) [nM]	apparent KD of MS2 coat protein [1] [nM]	apparent KD of MS2 coat protein [2] [nM]	apparent KD of MS2 coat protein [3] [nM]
GGUACAUGAGGAUCACCCAUGUAUUGGUACCGAGGACCGGUACGGCCGCCACUCGCAUGACAUGAGGAUCACCCAUGUGAAACCU [SSTA DOUBLE!!! :-D #12]	29.3	–	51.6	59.9	–
GGUAUGUAUUCGGAAACGAAUGCAUACCAACGAGGACCGGUACGGCCGCCACUCGGGCGGCGAUCACAUGAGGAUCACCCAUGUA [Ex Tryptophan A 2]	28	–	45.3	56.6	–
GGUUGGUAUAUAUAUAUAUUGAUUACUGAAGGAGCGGGAAAUAACCCAGGUAGGUCGCAGAGAUCCACAUGAGGAUCACCCAUGU [!0.G]	24.3	45.1	60.3	56.8	39.1
GGUUGGUGUAGAGAUAUAUUGAUUACUGAAGGAGCGGGAAAUAACCCAGGUAGGUCGCAGAGAUCCACAUGAGGAUCACCCAUGU [!0.K]	30.6	39.7	53	36.9	29.8
GUCAGUAGAACAGAUACCAGUCAAAGGCUGUGAUCUCAUAACAUGAGGAUCACCCAUGUUGACCCUUGGCAGCUGUGGGCGAGGG [#20 Exclusion-TheophyllineB]	26	–	77.8	–	43.7
GUCCACAGCCGAAGGAGCGCUAGAAGAUGACAUGAGGAUCACCCAUGUGUGUGAUGUGGCUAGCAGGUAGGUCGCGGAGUGGAUU [Exclusion - Arginine B (Freestyle 14)]	20.5	21.7	30.3	24.8	19.6
GUCCUAAGGUCGGCCGCCACUGUAGAGUGUGAGCCAUCACAUGAGGAUCACCCAUGUUGUUGCUAUAGGACCGGGAUUGUAGGAC [#22 Exclusion Tryptophan B]	13.5	–	15.5	12.6	–
GUCCUAGCGAUCGCUCGCUAGGACGCGGAUACCAGCGAGGUCCAUCGCCCUUGGCAGCCGAACAUGAGGAUCACCCAUGUCGGUA [#1 Same State - Theophylline A Attempt #18 (HarryS)]	8.4	–	14.2	–	10.2
GUGUGCGGCACGGCCGCCACUGCGGUGGUGUGACAUGAGGAUCACCCAUGUUGUCAUGCGGCCCUUAGGACCGGGUGGCGUGCAC [#1 Exclusion - Tryptophan B Attempt #17 (HarryS)]	27.4	37.3	61.2	50.4	46.5
GUUAGAUCAAAAGAUUUAACAGUGGGUGAACGAGGACCGGUACGGCCGCCACUCGGACAUGAGGAUCACCCAUGUCCAUGUGAAA [AstrosExyTryA#16]	19.4	17.2	15.2	15.9	43.5
GUUAUGGACCUGGAUACCAGCUGGUACAAGGGCGGUCUACAUGAGGAUCACCCAUGUGUCAGCCCUUGGCAGCCAGCAACCCACU [Cele]	10.6	–	16.7	–	9.57
GUUGGUUUGGGAAGGAGCGGGUAUGUUGUCUACUUGAUCCUAACAUGAGGAUCACCCAUGUCCCAGGUAGGUCGCCCAGGCUUUG [12.aD]	35.7	139	230	103	98.4
UAACAUGAGGAUCACCCAUGUUUAGAUGAACGAGGACCGGUACGGCCGCCACUCGAUAAGUGGCAAGAACGAGGGAUUGUAUGCU [Same State Trp A GF3]	12.7	13.8	22.6	11.7	13.2
UAACAUGAGGAUCACCCAUGUUUGAAGGAACGAGGACCGGUACGGCCGCCACUCGACGAGUGGAUGAGAAGUGGGCUUGUGUGCU [Same State Trp A GF9]	13.7	15.5	16.3	13	16.5
UAAUAAUUGUGAUUCUCAGGUCCUCGAUAACGAGGACCGGUACGGCCGCCACUCGAACAUGAGGAUCACCCAUGUAUGAGGACCU [M'-T'-T-MS2-T'' - Design 3]	13.8	15.9	21	19.6	13.8
UAAUAGGUCCAGAACGUACCAGGUGAUCAACGAGGACCGGUACGGCCGCCACUCGAAACAUGAGGAUCACCCAUGUAACUGGACC [|T'-M'-Trp-Ms2|_Design 2_ML]	173	72.9	95.3	518	61.4
UAAUCCGGUCCUCGAUAGGUGAUCCUCUAACGAGGACCGGUACGGCCGCCACUCGAUAACAUGAGGAUCACCCAUGUAAUAAUAA [|T'-M'-Trp-Ms2|_Design16]	33	–	41.9	45.1	–
UACAUGAGGAUCACCCAUGUAUGAAUAGAUACCAGAUAAAAUAAGGUCCCUUGGCAGCUAGUGAAUAAAGGGUGGGUAAAAUAAU [Exclusion Theophyline A GF 1]	11.3	–	12.3	–	9.24
UACAUGAGGAUCACCCAUGUAUGUAUCGAAGGAGCGCGUGUAAACGCAGGUAGGUCGCGAACAUGAGGAUCACACAUGAGGAUCA [Same State Arginine A]	20.9	–	31.1	37.5	29.3
